Test results as given in publication PMC6393709.

Target: PARP1 (protein used in the SPRi assay) (UniProt P09874)
Experiment: SPR; SPRi on a PlexArray HT (V3), 25°C, 1x PBS pH 7.4

UniProt P09874, sequence (P09874 whole entry): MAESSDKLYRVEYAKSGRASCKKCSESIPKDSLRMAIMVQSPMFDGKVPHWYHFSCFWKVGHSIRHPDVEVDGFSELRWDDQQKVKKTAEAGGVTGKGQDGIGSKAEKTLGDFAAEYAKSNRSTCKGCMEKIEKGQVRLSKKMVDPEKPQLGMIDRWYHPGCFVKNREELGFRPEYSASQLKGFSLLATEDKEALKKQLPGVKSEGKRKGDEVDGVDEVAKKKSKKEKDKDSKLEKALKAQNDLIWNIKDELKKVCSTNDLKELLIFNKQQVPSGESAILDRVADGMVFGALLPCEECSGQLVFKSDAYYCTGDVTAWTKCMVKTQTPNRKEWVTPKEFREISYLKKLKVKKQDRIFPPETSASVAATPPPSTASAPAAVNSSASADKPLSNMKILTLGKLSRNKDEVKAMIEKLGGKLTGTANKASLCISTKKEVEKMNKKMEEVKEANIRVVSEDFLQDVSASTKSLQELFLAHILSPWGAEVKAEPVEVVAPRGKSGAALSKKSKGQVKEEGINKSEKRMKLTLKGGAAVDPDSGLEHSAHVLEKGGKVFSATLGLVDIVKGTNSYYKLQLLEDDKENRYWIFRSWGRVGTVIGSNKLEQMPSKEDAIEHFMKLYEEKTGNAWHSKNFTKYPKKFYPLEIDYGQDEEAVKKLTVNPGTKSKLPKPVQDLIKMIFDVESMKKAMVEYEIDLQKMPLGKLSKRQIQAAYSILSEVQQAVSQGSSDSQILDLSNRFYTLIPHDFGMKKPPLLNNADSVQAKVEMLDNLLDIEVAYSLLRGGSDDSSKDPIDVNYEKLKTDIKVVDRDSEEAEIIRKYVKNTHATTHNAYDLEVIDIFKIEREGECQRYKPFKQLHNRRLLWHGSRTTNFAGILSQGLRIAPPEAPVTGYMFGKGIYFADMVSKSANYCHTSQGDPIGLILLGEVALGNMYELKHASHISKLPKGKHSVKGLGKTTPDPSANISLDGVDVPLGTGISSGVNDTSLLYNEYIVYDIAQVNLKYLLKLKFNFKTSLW

- Kd: 13.6 nM
Substance: F-actin domain of ABL1 (domain or fragment)
